The values below come from the nanobody polyreactivity screen of Harvey et al. (2022).

The series can be described thus: yeast display, Sf9 membrane polyspecificity reagent, FACS + sequencing; frameworks hold sequencing errors. Summed up:
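Galactose induction of a Saccharomyces cerevisiae BJ5465 synthetic nanobody display library ran 36–48 hours. The cells were then stained for 1 hour at 4 °C with 10% biotinylated, detergent-solubilized Sf9 membrane reagent, pulled down on streptavidin microbeads and FACS-sorted into low and high (top ~1%) gates on expression and reagent-binding fluorescence. Labels for polyreactivity follow the gate of origin.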
For the sequence “QVQLVESGGGLVQAGGSLRLSCAASGFTRIYAMGWYRQAPGKEREMVAAISQRGGRTYYADSVKGRFTISRDNAKNTVSLQKNSLKQEDTAVYYCNSDLRSYNYPEYEYDYWGQGTQVTVSS”, the “polyreactivity (PSR sort gate)” value is “high polyreactivity”. The result for “QVQLVESGGGLVQAGGSLRLSCAASGFTSAPYAMGWYRQAPGKERELVAAISSGDTTSYADSVKGRFTISRDNAKNTVYLQMNSLKPEDTAVYYCAAVYFNVIESYKTAGYDYWGQGTQVTVSS” reads “low polyreactivity”; that for “QVQLVESGGGLVQAGGSLRLSCAASGFTSAPYAMGWYRQAPGKERELVAAITRTGGSTYYADSVKGRFTISRDNAKNTVYLQMNSLKPEDTAVYYCAVRLSGYQYHFRYGYWGQGTQVTVSS”, “high polyreactivity”. With “QVQLVESGGGLVQAGGSLRLSCAASGFTSFANAMGWYRQAPGKERELVASITNSGGSTHYADSVKGRFTISRDNAKNTVYLQMNSLKPEDTAVYYCAADYWIVYRIYGSKYLGKWYDYWGQGTQVTVSS” the entry was “low polyreactivity”; with “QVQLVESGGGLVQAGGSLRLSCAASGFTSRRYAMGWYRQAPGKERELVAAISWSGGSTYYADSVKGRFTISRDNAKNTVYLQMNSLKPEDTAVYYCAAKRYSSKRGLDYWGQGTQVTVSS”, “high polyreactivity”; with “QVQLVESGGGLVQAGGSLRLSCAASGFTSSRNAMGWYLQAPGKEREWVATISSGGDTYYADSVKGRFTISRDNAKNTVYLQMNSLKPVDTAVYYCNKDPLYDWGYDYWGHGTQVTVSS”, “low polyreactivity”.

With “QVQLVESGGGLVQAGGSLRLSCAASGFTSVDNAMGWYRQAPGNERELVAAIDTSGARTYYADSVKGRFTISRDNAKHTVYLQMNSLKPEDTAVYYCATEYVYDDRLYSTYYYWGQGTQVTVSS”, the “polyreactivity (PSR sort gate)” value was “high polyreactivity”.

Take “QVQLVESGGGLVQAGGSLRLSCAASGFTSYDNAMGWYRPAPGKERELVAASTWDGGSTYYADSVKGRFTISRDNAKNTVDLQMNSLKPEDTAVYDCAADLADFYPRYNYWGQGTQVTVSS”: the “polyreactivity (PSR sort gate)” value was “low polyreactivity”. With “QVQLVESGGGLVQAGGSLRLSCAASGFTTNYYARGWYRQAPGKERELVAAITTGGSTHYADSVKGRFTISRDNAKNTVYLQMNSLKPEDTAVYYCAAGTNRQQQRYFHHGGYYQYNYWGQGTQVTVSS” the entry was “low polyreactivity”; with “QVQLVESGGGLVQAGGSLRLSCAASGFTYKYYAMGWYRQAPGKERELVAAIRRSAGSTNYADSVKGRFTISRDNAKNTVYLQMNSLKPEDTAVYYCNTVGTRQPMDYWGQGTQVTVSS”, “high polyreactivity”; with “QVQLVESGGGLVQAGGSLRLSCAASGFTYKYYVMGWYRQAPGKERELVASISKRGGSTRYADSVKGRFTISRDYAKNTVYLQMNSLKPEDNAVYYCAAAFVRRPPYVGYSRFDYWGQGTQVTVSS”, “high polyreactivity”. The result for “QVQLVESGGGLVQAGGSLRLSCAASGFTYRWYAMGWYRQAPGKETELVAAISWDGGSTYYADSVKGRFTISRDNAKNTVYLQMNSLKPEDTAVYFCATVKSLRYWWQNEYGYWGQGTQVTVSS” reads “high polyreactivity”. With “QVQLVESGGGLVQAGGSLRLSCAASGFTYRYYAMGWYRQSPGKERELVAAISSGGNTRYADSVKGRFTISRDNAKNTVYLQMTSLKPEDTAVYYCARRPGDWKYVYTGDYWGQGTQVTVSS”, the “polyreactivity (PSR sort gate)” value is “high polyreactivity”. For “QVQLVESGGGLVQAGGSLRLSCAASGFTYYHNAMGWYRQAPGKERELVAAISSSGDSTYYADSVKGRFTISRDNAKNTVYLQMKSLKPEDTAVYYCNDYFYYLSLYYYYWFNYDYWGQGTQVTVSS”, the “polyreactivity (PSR sort gate)” value was “low polyreactivity”. In the case of “QVQLVESGGGLVQAGGSLRLSCAASGGIFAPNAMGWYRQAPGKEREFVAAISTGGGSTRYADSVKGRFTISRDNAKNTVYLQMNSLKPEDTAVYYCAAELWYTWLGSPYDYWGQGTQVTVSS”, the “polyreactivity (PSR sort gate)” value is on record as “low polyreactivity”. As for “QVQLVESGGGLVQAGGSLRLSCAASGGIFAYNVMGWYRQAPGKERELVAAISSAGSTYYADSVKGRFTISRDNAKNTVYLQMNSLKPEDTAVYYCAVRIGLKYDYWGQGTQVTVSS”, the “polyreactivity (PSR sort gate)” value is “low polyreactivity”. With “QVQLVESGGGLVQAGGSLRLSCAASGGIFDGNAMGWYRQAPGKERELVAAISSGGITKYADSVKGRFTISRDNAKNTVYLQKNSLKPEDTAVYYCAASWYRYRFIRYDYWGQGTQVTVSS” the entry was “high polyreactivity”.

For the sequence “QVQLVESGGGLVQAGGSLRLSCAASGGIFDGYAMGWYRQAPGKERELVAAINYSVDRTYYADSVKGRFTISRDNAKNTVYLQMNSLKPVDTAVYYCATVPRYVRFGYGYWGQGTQVTVSS”, the “polyreactivity (PSR sort gate)” value is listed as “high polyreactivity”. For the sequence “QVQLVESGGGLVQAGGSLRLSCAASGGIFDSYAMGWYRQAPGKERELVAAISRSGSTNYADSVKGRFTISRDNAKNTVYLQMYSLKPEDTAVYYCAASVRGIRYDYWGQGTQVTVSS”, the “polyreactivity (PSR sort gate)” value is “low polyreactivity”. Regarding “QVQLVESGGGLVQAGGSLRLSCAASGGIFDSYAMGWYRQAPGKERELVADITWSGGSTYYADSVKGRFTISRDNAKNTVYLQMNSLKPEDTAVYYCAADDGSQYYFDSPHEYDYWGQGTQVTVSS”, the “polyreactivity (PSR sort gate)” value was “low polyreactivity”. With “QVQLVESGGGLVQAGGSLRLSCAASGGIFDTYAMGWYRQAPGKERELVAAISSTGGSTYYADSVKGRFTISRDNAKNTVYLQMNSLKPEDTAVYYCNAVLARFWRYRRWEYDYWGQGTQVTLSS” the entry was “high polyreactivity”; with “QVQLVESGGGLVQAGGSLRLSCAASGGIFDYYAMGWYRQAPGKERELVAAISSSGGSTYYADSVKGRFTISRDNAKNTVYLQMNSLKPEDTAVYYCNADRRRRFGYWGQGTQVTVSS”, “high polyreactivity”; with “QVQLVESGGGLVQAGGSLRLSCAASGGIFFINAMGWYRQAPGKERELVAAISISDGSTYYADSVKGRFTISRDNAKNTVYLQMNSLKPEDTAVYYCAAEGFDWDSPEMEYWGQGTQVTVSS”, “low polyreactivity”.

Regarding “QVQLVESGGGLVQAGGSLRLSCAASGGIFGGYAMGWYRQAPGKEGELVAVITSGGSTYYADSVKGRFTISRDNAKNTVYLQMNSLKPEDTAVYYCAADGNSYSYSTYDYWGQGTQVTLSS”, the “polyreactivity (PSR sort gate)” value was “low polyreactivity”. In the case of “QVQLVESGGGLVQAGGSLRLSCAASGGIFGTNDLGWSRQAPGKERELVAAITSDSGSTYYADSVKGRFTISRDNAKNTVYLQMTSLKPEDTAVYYCAAEDGPWFYRYGYWGQGTQVTVSS”, the “polyreactivity (PSR sort gate)” value was “low polyreactivity”. With “QVQLVESGGGLVQAGGSLRLSCAASGGIFGTYAMGWYRQAPGKEREFVAAITSGDSTYYADSVKGRFTISRDNAKNTVYLQMNSLKPEDTAVYYCAVGSTDRVSAQGSYFTYDYWGQGTQVTVSS” the entry was “low polyreactivity”; with “QVQLVESGGGLVQAGGSLRLSCAASGGIFGTYTMGGYRQSPGKEREFVAAIRSSSGRTYYADSVKGRFTISRDNAKNTVYLQMNSLKPEVTAVYYCNAKYYGYRVGKYYPFGYWGQGTQVTVSS”, “high polyreactivity”; with “QVQLVESGGGLVQAGGSLRLSCAASGGIFGYNAMGWYRQAPGKERELVAAISRGTTTNYADSVKGRFTISRDNAKNTVYLQMNSLKPEDTAVYYCAADQPSKRYYYWGQGTQVTVSS”, “low polyreactivity”. With “QVQLVESGGGLVQAGGSLRLSCAASGGIFGYYAMGWYRQAPGKERELVAAISYSGGSTYADSVKGRFTISRDNAKNTVYLQMNSLKPEDTAVFYCAARVSSVTRSGFGYWGQGTQVTVSS” the entry was “high polyreactivity”; with “QVQLVESGGGLVQAGGSLRLSCAASGGIFISYAMGWYRQAPGKERELVAAITSSGGSTYYADSVKGRFTISRDNAKNTVYLQMNSLKPEVTAVYYCNTDRVPVKVSPLYESWGQGTQVTVSS”, “low polyreactivity”. The result for “QVQLVESGGGLVQAGGSLRLSCAASGGIFKYYAMGWSRQAPGTERELVAAITSGGNTNYAESVKGRFTISRDNAKNTVYLQMNSQKPEDTAVYYCSARSISRRTWQYNYWGQGTQVTVSS” reads “high polyreactivity”. For the sequence “QVQLVESGGGLVQAGGSLRLSCAASGGIFLKYAMAWYRQAPGKERELVASINTGVRTYYADSVKGRFTISRDNAKNTVYLQMNSLKPEDTAVYYCYADGGGPRKYTRTRGHWGQGTQVTVSS”, the “polyreactivity (PSR sort gate)” value was “low polyreactivity”. With “QVQLVESGGGLVQAGGSLRLSCAASGGIFLRYSMGWYRQAPGKERELVAAITANGGSTYYADSVKGRFTISRDNAKNTVYLQMISMKPEDTAVYYCNADSFPALNKRGYDYWGQVTQVTVSS”, the “polyreactivity (PSR sort gate)” value is given as “low polyreactivity”. The result for “QVQLVESGGGLVQAGGSLRLSCAASGGIFNYYAMGWYRQAPGKERELVAAISASGGSTYYADSVKGRFTISRDNAKNTVYLQMNSLKPEDTAVYYCAAGLPYGYGYDYWGQGTQVTVSS” reads “low polyreactivity”. With “QVQLVESGGGLVQAGGSLRLSCAASGGIFPAYAMGWYRQAPGKERELVAAITSSGASTYADSVKGRFTISRDNAKNTVYLQMNSLKPEDTAVYYCNADDTTVILEMDYWGQGTQVTVSS” the entry was “low polyreactivity”; with “QVQLVESGGGLVQAGGSLRLSCAASGGIFRGNAMGWYRQAPGKERELVAAISSSGGSTYYADSVKVRFTISRDNSKYTVYLEMYSLKPEDTAVYYCAAYAGSFYYWGQGTQVTVSS”, “high polyreactivity”; with “QVQLVESGGGLVQAGGSLRLSCAASGGIFRSYAMGWYRQAPGKERELVAAINYSGGSTYYADSVKGRFTISRDNAKNSVYLQMNSLKPEDTAVYYCASDGYIRQYVTYYYWGQGTQVTVSS”, “low polyreactivity”. Consider “QVQLVESGGGLVQAGGSLRLSCAASGGIFSWYDMGWYRQAPGKEREFVATITYSGGSTYYADSVKGRFTISRDNAKNTVYLQMNSLKPEDTAVYYCAAARYWYRRFDYWGQGTQVTVSS”, for which the “polyreactivity (PSR sort gate)” value is “high polyreactivity”. With “QVQLVESGGGLVQAGGSLRLSCAASGGIFSYNAMGWYIQAPGKERELVATISYSGGSTFYADSVKGRFTISRHNAKNTVYFQMNSLKPEDTAVYYCARPSYTSGYQSYDYWGQGTQVTVSS” the entry was “low polyreactivity”. For “QVQLVESGGGLVQAGGSLRLSCAASGGIFTGYAMGWYRQAPGKERELVAAISSGGTTYYADSVKGRFTISRDNAKITVHLQMNSLKPEDTAVYYCAAGFYLRAVWMDYWGQGTQVTVSS”, the “polyreactivity (PSR sort gate)” value is on record as “high polyreactivity”.
